± gives the standard error.
Assay: background-corrected fluorescence of 3'-dye-labeled ssDNA relative to brightest sequence (3'-GCGCG) (fraction); higher = brighter dye fluorescence (less quenching)
Conditions: dye: Cy3 (3' terminal)
Summary of the method: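 Single-stranded DNA was built on glass slides by light-directed phosphoramidite synthesis, ending in a 3' Cy3 or Cy5 dye beside each of 1024 permuted pentamers. Arrays were washed in acetonitrile for 2 h at r.t., then scanned at 532 or 635 nm before and after overnight ethylenediamine/ethanol deprotection. Each value averages 10 features per array and at least 3 syntheses. Fluorescence, corrected by subtracting unlabeled-oligo background, is scaled to the brightest sequence.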

Sequence | background-corrected fluorescence
TTTTTTGATGCTCATGCTGATTTTTTTTTTTTTTTCAGAC | 0.451 ± 0.024
TTTTTTGATGCTCATGCTGCTTTTTTTTTTTTTTTCAGAA [AAGAC] | 0.609 ± 0.022
TTTTTTGATGCTGAGCAGCATTTTTTTTTTTTTTTCACTT | 0.498 ± 0.016
TTTTTTGATGCTGAGCATCATTTTTTTTTTTTTTTCACTG [GTCAC] | 0.487 ± 0.028
TTTTTTGATGCTGAGCATGATTTTTTTTTTTTTTTCACTC [CTCAC] | 0.399 ± 0.017
TTTTTTGATGCTGAGCATGCTTTTTTTTTTTTTTTCACTA [ATCAC] | 0.471 ± 0.014
TTTTTTGATGCTGATCAGCATTTTTTTTTTTTTTTCACGT [TGCAC] | 0.588 ± 0.034
TTTTTTGATGCTGATCATCATTTTTTTTTTTTTTTCACGG [GGCAC] | 0.584 ± 0.023
TTTTTTGATGCTGATCATGATTTTTTTTTTTTTTTCACGC [CGCAC] | 0.536 ± 0.021
TTTTTTGATGCTGATCATGCTTTTTTTTTTTTTTTCACGA [AGCAC] | 0.594 ± 0.013
TTTTTTGATGCTGATGAGCATTTTTTTTTTTTTTTCACCT [TCCAC] | 0.457 ± 0.021
TTTTTTGATGCTGATGATCATTTTTTTTTTTTTTTCACCG [GCCAC] | 0.505 ± 0.024
TTTTTTGATGCTGATGATGATTTTTTTTTTTTTTTCACCC [CCCAC] | 0.37 ± 0.028
TTTTTTGATGCTGATGATGCTTTTTTTTTTTTTTTCACCA [ACCAC] | 0.493 ± 0.019
TTTTTTGATGCTGATGCGCATTTTTTTTTTTTTTTCACAT [TACAC] | 0.521 ± 0.02
TTTTTTGATGCTGATGCTCATTTTTTTTTTTTTTTCACAG [GACAC] | 0.481 ± 0.031
TTTTTTGATGCTGATGCTGATTTTTTTTTTTTTTTCACAC | 0.392 ± 0.006
TTTTTTGATGCTGATGCTGCTTTTTTTTTTTTTTTCACAA [AACAC] | 0.562 ± 0.022
TTTTTTGATGCTGCGCAGCATTTTTTTTTTTTTTTCAATT [TTAAC] | 0.538 ± 0.027
TTTTTTGATGCTGCGCATCATTTTTTTTTTTTTTTCAATG [GTAAC] | 0.53 ± 0.029
TTTTTTGATGCTGCGCATGATTTTTTTTTTTTTTTCAATC [CTAAC] | 0.421 ± 0.026
TTTTTTGATGCTGCGCATGCTTTTTTTTTTTTTTTCAATA [ATAAC] | 0.574 ± 0.023
TTTTTTGATGCTGCTCAGCATTTTTTTTTTTTTTTCAAGT [TGAAC] | 0.629 ± 0.0081

Sequence | background-corrected fluorescence
TTTTTTGATGCTGCTCATCATTTTTTTTTTTTTTTCAAGG [GGAAC] | 0.579 ± 0.028
TTTTTTGATGCTGCTCATGATTTTTTTTTTTTTTTCAAGC [CGAAC] | 0.514 ± 0.024
TTTTTTGATGCTGCTCATGCTTTTTTTTTTTTTTTCAAGA [AGAAC] | 0.683 ± 0.036
TTTTTTGATGCTGCTGAGCATTTTTTTTTTTTTTTCAACT | 0.53 ± 0.011
TTTTTTGATGCTGCTGATCATTTTTTTTTTTTTTTCAACG [GCAAC] | 0.535 ± 0.022
TTTTTTGATGCTGCTGATGATTTTTTTTTTTTTTTCAACC [CCAAC] | 0.377 ± 0.027
TTTTTTGATGCTGCTGATGCTTTTTTTTTTTTTTTCAACA [ACAAC] | 0.489 ± 0.0058
TTTTTTGATGCTGCTGCGCATTTTTTTTTTTTTTTCAAAT [TAAAC] | 0.553 ± 0.017
TTTTTTGATGCTGCTGCTCATTTTTTTTTTTTTTTCAAAG [GAAAC] | 0.535 ± 0.017
TTTTTTGATGCTGCTGCTGATTTTTTTTTTTTTTTCAAAC | 0.428 ± 0.03
TTTTTTGATGCTGCTGCTGCTTTTTTTTTTTTTTTCAAAA [AAAAC] | 0.569 ± 0.015
TTTTTTGCGCAGCAGCAGCATTTTTTTTTTTTTTTATTTT | 0.488 ± 0.022
TTTTTTGCGCAGCAGCATCATTTTTTTTTTTTTTTATTTG [GTTTA] | 0.5 ± 0.026
TTTTTTGCGCAGCAGCATGATTTTTTTTTTTTTTTATTTC [CTTTA] | 0.404 ± 0.0099
TTTTTTGCGCAGCAGCATGCTTTTTTTTTTTTTTTATTTA | 0.545 ± 0.017
TTTTTTGCGCAGCATCAGCATTTTTTTTTTTTTTTATTGT [TGTTA] | 0.589 ± 0.027
TTTTTTGCGCAGCATCATCATTTTTTTTTTTTTTTATTGG [GGTTA] | 0.549 ± 0.038
TTTTTTGCGCAGCATCATGATTTTTTTTTTTTTTTATTGC [CGTTA] | 0.525 ± 0.024
TTTTTTGCGCAGCATCATGCTTTTTTTTTTTTTTTATTGA [AGTTA] | 0.643 ± 0.018
TTTTTTGCGCAGCATGAGCATTTTTTTTTTTTTTTATTCT [TCTTA] | 0.45 ± 0.021
TTTTTTGCGCAGCATGATCATTTTTTTTTTTTTTTATTCG [GCTTA] | 0.519 ± 0.034
TTTTTTGCGCAGCATGATGATTTTTTTTTTTTTTTATTCC [CCTTA] | 0.404 ± 0.016
TTTTTTGCGCAGCATGATGCTTTTTTTTTTTTTTTATTCA [ACTTA] | 0.484 ± 0.035

Sequence | background-corrected fluorescence
TTTTTTGCGCAGCATGCGCATTTTTTTTTTTTTTTATTAT | 0.508 ± 0.031
TTTTTTGCGCAGCATGCTCATTTTTTTTTTTTTTTATTAG [GATTA] | 0.552 ± 0.011
TTTTTTGCGCAGCATGCTGATTTTTTTTTTTTTTTATTAC [CATTA] | 0.405 ± 0.022
TTTTTTGCGCAGCATGCTGCTTTTTTTTTTTTTTTATTAA [AATTA] | 0.585 ± 0.024
TTTTTTGCGCATCAGCAGCATTTTTTTTTTTTTTTATGTT [TTGTA] | 0.575 ± 0.028
TTTTTTGCGCATCAGCATCATTTTTTTTTTTTTTTATGTG [GTGTA] | 0.607 ± 0.043
TTTTTTGCGCATCAGCATGATTTTTTTTTTTTTTTATGTC [CTGTA] | 0.454 ± 0.021
TTTTTTGCGCATCAGCATGCTTTTTTTTTTTTTTTATGTA | 0.549 ± 0.017
TTTTTTGCGCATCATCAGCATTTTTTTTTTTTTTTATGGT [TGGTA] | 0.649 ± 0.027
TTTTTTGCGCATCATCATCATTTTTTTTTTTTTTTATGGG [GGGTA] | 0.661 ± 0.035
TTTTTTGCGCATCATCATGATTTTTTTTTTTTTTTATGGC [CGGTA] | 0.545 ± 0.043
TTTTTTGCGCATCATCATGCTTTTTTTTTTTTTTTATGGA [AGGTA] | 0.712 ± 0.02
TTTTTTGCGCATCATGAGCATTTTTTTTTTTTTTTATGCT [TCGTA] | 0.518 ± 0.029
TTTTTTGCGCATCATGATCATTTTTTTTTTTTTTTATGCG [GCGTA] | 0.587 ± 0.017
TTTTTTGCGCATCATGATGATTTTTTTTTTTTTTTATGCC [CCGTA] | 0.436 ± 0.0052
TTTTTTGCGCATCATGATGCTTTTTTTTTTTTTTTATGCA [ACGTA] | 0.527 ± 0.024
TTTTTTGCGCATCATGCGCATTTTTTTTTTTTTTTATGAT [TAGTA] | 0.615 ± 0.028
TTTTTTGCGCATCATGCTCATTTTTTTTTTTTTTTATGAG [GAGTA] | 0.602 ± 0.036
TTTTTTGCGCATCATGCTGATTTTTTTTTTTTTTTATGAC [CAGTA] | 0.469 ± 0.0096
TTTTTTGCGCATCATGCTGCTTTTTTTTTTTTTTTATGAA [AAGTA] | 0.594 ± 0.017
TTTTTTGCGCATGAGCAGCATTTTTTTTTTTTTTTATCTT [TTCTA] | 0.458 ± 0.0056
TTTTTTGCGCATGAGCATCATTTTTTTTTTTTTTTATCTG [GTCTA] | 0.55 ± 0.026
TTTTTTGCGCATGAGCATGATTTTTTTTTTTTTTTATCTC [CTCTA] | 0.41 ± 0.024
